The nanobody polyreactivity screen of Harvey et al. (2022)

Assay: yeast display, Sf9 membrane polyspecificity reagent, FACS + sequencing; frameworks hold sequencing errors
How it was run: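 Sorting gates, low and high (top ~1%), were placed on anti-HA fluorescence to track expression and on streptavidin fluorescence to track reagent binding. A clone's polyreactivity label is taken from the gate it came out of. The reagent was 10% biotinylated, detergent-solubilized Sf9 membrane, applied for 1 hour at 4 °C to galactose-induced yeast display cells.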

Row | Sequence | polyreactivity (PSR sort gate)
1 | QVQLVESGGGLVQAGGSLRLSCAASGSIFSYNMGWYRQAPGKEREFVAAISSGGSTYYADSVKGRFTISRDNAKNTVYLQMNSLKPEDTAVYYCNRVRRGVWRQDDYWGQGTQVTVSS | high polyreactivity
2 | QVQLVESGGGLVQAGGRLRLSCAASGSTFAIYGMGWYRQAPGKERELVAGITRGGSTNYADSVKGRFTISRDNAKNTVYLQMNSLKPEDTAVYYCNSPFGVRRFKTKGRSHYEYWGQGTQVTVSS | high polyreactivity
3 | QVQLVDSGGGLVQAGGSLRLSCAASGSTFITNTMGWDRQSPGKDRELVAAISQSGTRTYYANSVKGRFTISRDNAKNTVYLQMNSLKPEDTAVYYCAADRQRYTSSSRKGLGYCGQGTQVTVSS | high polyreactivity
4 | QVQLVESGGGLVQAGGSLRLSCAASGFIFHKYVMGWYRQAPGKERELVAAISRSGASTYYADSVKGRFTISRDNAKNTVYFQMNSLKPEDTAVYYCAARYRRRVIATRDYWGQGTQVTVSS | high polyreactivity
5 | QVQLVESGGGLVQAGGSLRLSCAASGLTFSYYAMGWYRQAPGKERELVAGISSSGGTTYYADSVKGRFTISRDNAKNTVYLQMNSLKPEDTAVYYCATRRHYGSFWYDYWGQGTQVTVSS | high polyreactivity
6 | QVQLVESGGGLVQAGGSLRLSCAASGSIFYRYAMGWYRQAPGKERELVAAINWSGGSTYYADSVKGGFTISRDNAKNTVYLQMNTLKPEDTAVYYCAARLYWRRYDYWGQGTQVTVSS | high polyreactivity
7 | QVQLVESGGGLVQAGGSLRLSCAATGFTFYTYAMGWYRQATGKETELVADISSGGSTNYADSVKGRFRISRDNAKNTVYLQMNSLIPEDTAVYYCSDDYYFLDWYDYWGQGTQVTVSS | low polyreactivity
8 | QVQLVESGGGLVQAGGSLRLSCAASGFTFSTYAMGWYRQAPGKERELVAAISRSGGSTYYADSVKGRFTISRDNAKNTVYLQMNSLKPEDTAVYYCNAEGPSYYYIIYDYWGQGTQVTGSS | high polyreactivity
9 | QVQLVESGGGLVQAGGSLRLSCAASGIIFSSYGMGWYRQAPGKERELVAAIRWSTGNTYYADSVKGRFTISRDNAKNTVYLQMNSLKPEDTAVYYCAKRSSWGYHFYYWGQGTQVTVSS | high polyreactivity
10 | QVQLVESGGGLVQAGGSLRLSCAASGSTFWKYAMGWYRQAPGKERELVASIRSGGSTYYADSVKGRFTISRDNAKNTVYLQMNSLKPEDTAVYYCAAVTHGRYDWGQGTQVTVSS | high polyreactivity
11 | QVQLVESGGGLVQAGGSLRLSCAASGITFYDNAMGWDRQAPGKEREFVAAISKSGGNTYYADSVKGRFTISRDNAKNTVYLQMNSLKPEDTAVYYCDARTQAFSRKGYGYWGQGTQVTVSS | high polyreactivity
12 | QVQLVESGGGLVKAGGSLRLSSAASGRILYGNAMGGYRQAPGKERELVAANTRRGGSTYYADSVKGRFTISRDNAKNTVSLQMNSLKPEDTAVYYCAASRYTSYYKDGCYAYYYWGQGTQVTVSS | high polyreactivity
13 | QVQVVQSGGGLVQAGGSLSLSCAASGNTFYGYAMGWYRQAPGNESEFVASITLSGDSTYYADSVKGRFTISRDNAQNTVYLQMNSLKPEDTAVYYCAGVYTYPLGYYHYTYDYWGQGTQVTVSS | low polyreactivity
14 | QVQLVESGGGLVQAGGSLRLSCAASGLTLGRYAMGWYRQAPGNERELVAVITGGGSTNYADSVKGRFTISRDNAKNTVYIQLNSLKPADTAVYYCAVRGGIFQTLSTWYRYYYCGQGTQVTVSS | high polyreactivity
15 | QVKLVESGGVLVQAGGSLRITCAGSGRIFSRYVMGWYRQAPGKETEFVAYITWSGSSTFYADSVKGRFTISRDNAKNTGYLQMNSHKPEDSAVYFCAALGLLSPSPWGTHISEYDSWGQGTQVTVSS | low polyreactivity
16 | QVQLVESGGGLVQAGRTLRLSCAASGNIFDLNAMGWYRPAPGKERELVAAIDRGGGSTYYADSVKGRFTISRDNATNTVYLHMNSLKTEDTAVYYCSAVDQESNPAGGYWGQGSQVTVSS | low polyreactivity
17 | QVQLVESGGGLVQAGGSLRLSCAASGSTFPRYAMGWYRQAPGKEREFVAAISRRGGSTYYADSVKGRFTISRDNAKNTVYLQMNSLKPEDTAVYYCAKYLPTRVWGTGRFDYWGQGTQVTVSS | high polyreactivity
18 | QVQLVESGGGLVQAGGSLRLSCAASGNTLAYYVMGWYRQAPGKERELVAAITSGGTTNYADSVKGRFTISRDNAKNTVYLQMNSLNPEDTAVYYCAGCPSKRPPWLRQGGYDYWGQGTQVTVSS | low polyreactivity
19 | QVQLVESGGGLVQAGGSLRLSCAASGFIFYDYDMGWYRQAPGKERELVAAITYSGGSTYYADSVKGRFTISRDNAKNSVYLQMNSLKPEDTAVYYCAAVKSRYAEAVDYYYWGQGTQVNVSS | low polyreactivity
20 | QVQLVESGGGIVQAGGSLRLSCAASGFIFWKNAMGWYSQAPGKERELVAAISTRGGSTYYADSVKGRFTISRDNAKNTVYLQMNSLKPEDTAVYYCNKEWYPYKHNYWGQGTQVTVSS | low polyreactivity
21 | QVQLVESGGGLVQAGGSLRLSCAASGSTFSRYAMGSYRQAPGKERELVAAITGTGGRTYYADSVKGRFTISRDNAKNTVYLQMNSLKPEDTAVYYCAAQRWTVKYNYWGQGTQVTVSS | high polyreactivity

Row | Sequence | polyreactivity (PSR sort gate)
22 | QVQLVESGGGLVQAGVSLRLSCAASGRIFRFYAMGWYRQAPGIDRELVATISRSGGSTYYADSVKGRFTISRDNAKNNAYLQMNSLKPEDTAVYYCAAQRLHDGDYWVQGTQVTVSS | high polyreactivity
23 | QVQLVESGGGLVQAGGSLRLSCAASGSIFSDYAMGWYRQAPGKERELVAGISSGGGTTYADSVKGRFTISRDNAKNTVYLQMNSLIPEDTAVYYCNKQDQPVGRSGYPYGYDYWGQGTQVTVSS | low polyreactivity
24 | QVQLVESGGGLVQAGGSLRLSCAASGFTLGYYAMGWDRQAPGKERELVASISITAGSTYYAVSVMGRLTISRDNAKNTVYLQMNSLKPEDTAVYYCAAKRRTRQSYYTVYYWGQGTQVTVSS | high polyreactivity
25 | QVQLVESGGRLVQAGGSLRIICAASGIIFFHYAMGWYRQAPGKERELVAAITCSGGSTYYADSVKGRFTISRDKAKNTVYLHMNSLKPEDTAVYYGNAVLHRRLYDYWGQGTQVTVSS | high polyreactivity
26 | QVQLVESGGCLVQAGGSLRLSCAASGYTFLYNAMGWYRQAPGKERELVATNTRGGSTNYADSVKGRFTISRDNAKNTVYLQMYSLKPEDTAVYYCNKEAAPLGFVPSYYGRDYWGHGTQVTVSS | low polyreactivity
27 | QVQLVESGGGLVQAGGSLRLSCAASGFIFGYNAMVWYRQAPGKERELVARINSGGNTNYADSVKGRFTISRDNAKNTVYLQMNSLKPDDTAVYYCARDASNRYDYWGQGTLVTVSS | low polyreactivity
28 | QVQLVESGGGLVQAGGSLRLSCVASGRTFATYTLGWYRPAPGKERELVAAITTSGGTYYADSVKGRFTISRDNAKNTVYLQMNSLKPEDTAVYYCANVSYYTSAPWYYYWGQGTQVTVSS | high polyreactivity
29 | QVQLVDSGGGLVQAGGSLRLSCAASGSIFYTNAMGWYRQAPGKERELVAAISYGGTTTYADSVKGRFTISRDNAKNTVYLQMNSLKPEDTAVYYCNADWLYYGYWGYGHIWYDYWGQGTQVTVSS | low polyreactivity
30 | QVQLVESGGGLVQAGGSLRLRCAASGFIFNYYALGWYRQAPGKERELVAAINSGGNTYYADSVKGRFTISRDNAKNPVYIKMNTLKPEDTAVYYCNRDPESVGYDYWGQGTQVTVSS | low polyreactivity
31 | QVQLVESGGALVQAGGSLRLSCAASGFILNKNVMGWYRQPPRKERELVAAITGSGGRTYYADSVKGRFTISRDNAKNTVYLQMNCLKPEDTAVFYCNALPGTQYNYWGQGTQVTVSS | high polyreactivity
32 | QLQLVESGGGLVPAGGSLRLSCASSGSIFKTYAMGWSRQAPGKDRELVAAIRGSGGSTYYADSVKGRFTIARDYAKNTVYLQMKSLKPEDTAFYYCARVGTKYRTNFFNGNDDWGQGTQVTVSS | low polyreactivity
33 | QVHLVESGGGLVQAGGSLRLSCAASGSIFAWYGMGWYRQAPGKERELVAAISTAGSTNYADSVKGRFTISRDNAKNTVYLQMNSLKPEDTAVYYCAADWGGLWFWYEYWGQCTQVTVSS | low polyreactivity
34 | QVQLVESGGGLVQAGGSLRLSCAASGSTFYDNAMGWYRQAPGKERELVAAINWSSDTTYYADSVKGRFTISRDNAKNTVYLQMNSLKPEDTAVYYCATDSAYRGYDYWGQGTQVTVSS | low polyreactivity
35 | QVQLVESGGGLVQAGGSLRLSCAASGSTFLVYAMGWYRQAPGKERELVAVIDNGGDTYYADSVKGRFTISRDNAKNTVYLQMNSLKPEDTEVYYCAADMSYLGYWEYDSWGQGTQVTVSS | low polyreactivity
36 | QVQLVESGGGLVQAGGSLRLRCAASGGTFSGYTMGWYRQAPGKERELVAAINWSGGRTYYADSVKGRFTISRDNAKNTVYLQMNSLKPEDTAVYYCNKYGLYYREYDYWGQGTQVTVSS | high polyreactivity
37 | QVQLVESGGGLVQAGGSLRLSCAASGSTFRYYAMGWYRQAPGKERELVAGITSAGNTYYADSVKGRFTISRDNAKNTVYLQMNSLKPEDTAVYYCAARRWKGYYYWGQGTQVTVSS | high polyreactivity
38 | QVQLVESGGGLVQAVGRLRLSCAASGRTFYYNGMGWYRQAPGKERELVAAISSGGTTSYADSVKGRFTISRDNAKNTVYLQMNSLKPEDTAVYYCNVYDKAPAYDYWGQGTQVTVSS | low polyreactivity
39 | QVQLVDSGGGLVQAGGSLRLSCAASGFILYFNAMGWYRQAHGKERELVAAISRGDGSTYADSVKGRFTISRDNAKNTVYLQMNSLKAQDTAVYYCNAGLGVVVTHYVGYGYDSWGQGTQVTVSS | low polyreactivity
40 | QVQLVESGGGVVQAGGSLRLTCAASGFTFARYATGWYRQAPGKERELVAAITYSGGRTYYADSVKGRFTISRDNAKNTVYLHMNSLKPEDTAVYYCAARQYGPRYTYYYWGQGTQVTVSS | high polyreactivity
41 | QVQIVESGGGLVQAGGSLRLTCAASGRTFYGNAMGWYRQAPGKERDLVADISSRSSSTSYADSVKGRFTISRDNAKYSVYFQMNSLKPEDTAVYYCATRYGYRTWYGYNYWGQGTQVTVSS | high polyreactivity
